# Reference: PMC3637500
# B1: Myc-tagged full-length Gab1 (wild type) [mouse] / GST-PTP1B-D181A (substrate-trapping mutant of PTP1B, GST fusion protein) [mouse] (parent)
# chain 1: MSGGEVVCSGWLRKSPPEKKLKRYAWKRRWFVLRSGRLTGDPDVLEYYKNDHAKKPIRIIDLNLCQQVDAGLTFNKKEFENSYIFDINTIDRIFYLVADSEEDMNKWVRCICDICGFNPTEEDPVKPLTGSSQAPVDSPFAISTAPASSQMEASSVALPPPYQVISLPPHPDTLGLQDDPQDYLLLINCQSKKPEPNRTLFDSAKPTFSETDCNDNVPSHQTPASSQSKHGMNGFFQQQMMYDCPPSRLTSVSGESSLYNLPRSYSHDVLPKESPSSTEADGELYTFNTPSGTAGVETQMRHVSISYDIPPTPGNTYQIPRTFPESTLGQSSKLDTIPDIPPPRPPKPHPTHDRSPVETCGVPRTASDTDSSYCIPPPAGMTPSRSNTISTVDLNKLRKDASSQDCYDIPRTFPSDRSSSLEGFHSQYKIKSVLTAGGVSGEELDENYVPMNPNSPPRQHSGSFTEPIQEPNYVPMTPGTFDFSSFGMQVPPPAHMGFRSSPKTPPRRPVPVADCEPPPVDRNLKPDRKVKPAPLDIKPLSEWEELQAPVRSPITRSFARDSSRFPMSPRPDSVHSTTSSSDSHDSEENYVPMNPNLSGEDPNLFASNSLDGGSSPMNKPKGDKQVEYLDLDLDSGKSTPPRKQKSSGSGSSMADERVDYVVVDQQKTLALKSTREAWTDGRQSTESETPTKNVK
# chain 2: MEMEKEFEEIDKAGNWAAIYQDIRHEASDFPCKVAKLPKNKNRNRYRDVSPFDHSRIKLHQEDNDYINASLIKMEEAQRSYILTQGPLPNTCGHFWEMVWEQKSRGVVMLNRIMEKGSLKCAQYWPQQEEKEMVFDDTGLKLTLISEDVKSYYTVRQLELENLTTKETREILHFHYTTWPAFGVPESPASFLNFLFKVRESGSLSLEHGPIVVHCSAGIGRSGTFCLADTCLLLMDKRKDPSSVDIKKVLLEMRRFRMGLIQTADQLRFSYLAVIEGAKFIMGDSSVQDQWKELSREDLDLPPEHVPPPPRPPKRTLEPHNGKCKELFSSHQWVSEETCGDEDSLAREEGRAQSSAMHSVSSMSPDTEVRRRMVGGGLQSAQASVPTEEELSSTEEEHKAHWPSHWKPFLVNVCMATLLATGAYLCYRVCFH
# Variants of: B1
# Assay: GST pull-down, anti-Myc immunoblot densitometry
# Conditions: with GST-PTP1B-D181A (substrate-trapping mutant of PTP1B, GST fusion protein) [mouse]; Gab1 expressed in HEK-293 T cells, pervanadate treatment; normalized to lysate loading control; parent: 100; read off a plot
row,Variant,percent of parent [%]
1,chain 1 Y285F,180
2,chain 1 Y373F,200
3,chain 1 Y448F,170
4,chain 1 Y407F,160

# Further lines, results first:
row,percent of parent [%],Variant
1,310,chain 1 Y590F
2,150,chain 1 Y660F
3,240,chain 1 Y628F
4,270,chain 1 Y473F
